This note sets out measurements from publication PMC8178886, “Recombinant laccase rPOXA 1B real-time, accelerated and molecular dynamics stability study” (BMC Biotechnology, 2021).

Substrate in this data set: CCn1c(=NN=c2sc3cc(S(=O)(=O)O)ccc3n2CC)sc2cc(S(=O)(=O)O)ccc21
Briefly: cells, lysate or membranes. It counts as biochemical, Pleurotus ostreatus. The settings on record: unpurified concentrate stored 12 months at 240.98 K (-32.55 °C), activity unchanged, 0.1 M citrate pH 3.0, 25 °C, ABTS 0.1-3 mM (all above the KM), air O2.

B1: rPOXA 1B (Pleurotus ostreatus) (protein)
chain: SIGPRGTLNIANKVIQPDGFYRSTVLAGGSYPGPLIKGKTGDRFQINVVNKLADTSMPVDTSIHWHGLFVKGHNWADGPAMVTQCPIVPGHSFLYDFEVPDQAGTFWYHSHLGTQYCDGLRGPLVVYSKNDPHKRLYDVDDESTVLTVGDWYHAPSLSLTGVPHPDSTLFNGLGRSLNGPASPLYVMNVVKGKRYRIRLINTSCDSNYQFSIDGHTFTVIEADGENTQPLQVDQVQIFAGQRYSLVLNANQAVGNYWIRANPNSGDPGFENQMNSAILRYKGARSIDPTTPEQNATNPLHEYNLRPLIKKPAPGKPFPGGADHNINLNFAFDPATALFTANNHTFVPPTVPVLLQILSGTRDAHDLAPAGSIYDIKLGDVVEITMPALVFAGPHPIHLHGHTFAVVRSAGSSTYNYENPVRRDVVSIGDDPTDNVTIRFVADNAGPWFLHCHIDWHLDLGFAVVFAEGVNQTAAANPVPEAWNNLCPIYNSSNPSKLLMGTNAIGRLPAPLKA
notes: recombinant, made in Pichia pastoris X33/pGAPZalphaA-LaccPost-Stop clone 1 (10 L bioreactor); unpurified enzyme concentrate without preservatives
In the case of B1, the Michaelis constant (Km) was 41.4 ± 4.6 µM and the Vmax turned out to be 10.2 µM/min.
